One assay addresses T1, mitochondrial bound HK-I (Rattus norvegicus, UniProt P05708).
T1 construct: from tissue; host or cells: rat brain mitochondria
T1 sequence (P05708 1-918): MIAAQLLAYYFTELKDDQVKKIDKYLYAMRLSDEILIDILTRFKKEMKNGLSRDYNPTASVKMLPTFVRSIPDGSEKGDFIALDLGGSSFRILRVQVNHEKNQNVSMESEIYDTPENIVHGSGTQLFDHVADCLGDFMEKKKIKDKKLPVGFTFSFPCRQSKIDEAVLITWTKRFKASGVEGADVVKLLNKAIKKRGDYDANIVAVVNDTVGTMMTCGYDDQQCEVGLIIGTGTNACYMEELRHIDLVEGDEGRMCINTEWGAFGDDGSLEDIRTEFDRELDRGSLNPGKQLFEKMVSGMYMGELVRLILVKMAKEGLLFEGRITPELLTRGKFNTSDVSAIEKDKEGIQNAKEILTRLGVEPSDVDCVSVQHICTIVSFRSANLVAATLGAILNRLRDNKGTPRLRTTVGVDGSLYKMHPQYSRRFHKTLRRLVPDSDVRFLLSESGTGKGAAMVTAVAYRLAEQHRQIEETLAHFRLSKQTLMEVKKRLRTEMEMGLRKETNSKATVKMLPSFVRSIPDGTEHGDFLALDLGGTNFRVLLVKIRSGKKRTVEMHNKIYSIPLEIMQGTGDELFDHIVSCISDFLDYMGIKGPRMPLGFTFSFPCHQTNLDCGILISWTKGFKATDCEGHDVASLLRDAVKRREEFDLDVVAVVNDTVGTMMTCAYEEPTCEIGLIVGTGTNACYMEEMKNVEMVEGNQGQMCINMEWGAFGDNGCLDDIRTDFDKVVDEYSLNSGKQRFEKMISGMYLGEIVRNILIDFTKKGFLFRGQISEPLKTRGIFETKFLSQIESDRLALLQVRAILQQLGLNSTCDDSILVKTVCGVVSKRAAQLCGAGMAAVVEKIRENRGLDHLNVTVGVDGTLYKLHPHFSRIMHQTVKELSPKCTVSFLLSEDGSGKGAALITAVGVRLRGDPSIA
Briefly: Detachment of mitochondria-bound HK-I. Type of assay: biochemical. The settings on record: peptide N.

A further assay has as its target T2, Bcl2 (Homo sapiens, UniProt P10415).
T2 construct: GFP; expressed in transfected cells
The settings on record: expression of peptide N in cells overexpressing Bcl2-GFP; Abu Hamad et al., 2009; cited from earlier work.

Assay [1] addresses T3, recombinant native mVDAC1 (Mus musculus, UniProt Q60932).
T3 construct: made in house; host or cells: yeast (purified from mitochondria of yeast expressing mVDAC1)
In words: VDAC channel recording in planar lipid bilayer (PLB). Type of assay: biochemical. The following applies: HK-I 28.6 mU/ml, 5 min; voltage step 0 to −20 mV; 0.5 M NaCl. As to the method: (§1) Native and mutated mVDAC1 were extracted with lauryldimethylamine N-oxide (LDAO) from mitochondria isolated from yeast expressing various VDACs, and purified by chromatography on hydroxyapatite followed by carboxymethyl (CM)-cellulose where LDAO was replaced by β-OG (β-octylglucoside).
(§2) Reconstitution of purified VDAC into a planar lipid bilayer (PLB) multi-channel current recording and data analyses were carried as follows. Briefly, PLB were prepared from soybean asolactin dissolved in n-decane (50 mg/ml) in a chamber containing 10 mM HEPES/KOH pH 7.4 and 0.5 or 1M NaCl (cis/trans). Only PLBs with a resistance greater than 100 GΩ were used. Purified VDAC (about 1 ng) was added to the chamber defined as the cis side. After one or a few channels inserted into the PLB, excess protein was removed by perfusion of the cis chamber with 20 volumes of a solution (with the same composition as before perfusion), in order to prevent further protein incorporation. Currents were recorded under voltage-clamp mode using a Bilayer Clamp amplifier (Warner Instrument, USA). The currents were measured with respect to the trans side of the membrane (ground). The currents were low-pass filtered at 1 kHz, using a Bessal filter (Frequency Devices, USA) and digitized on-line using a Digidata 1200 interface board and pCLAMP 6 software (Axon Instruments). Sigma Plot 2000 scientific software was used for data analyses. Experiments were performed at 23-25° C.
(§3) FIG. 1A: Purified recombinant native or E72Q-mutated mVDAC1 was reconstituted into a PLB (planar lipid bilayer) in symmetrical solutions of 0.5 M NaCl. Currents through VDAC1 channel in response to a voltage step from zero to −20 mV were recorded before and 5 min after the addition of HK-I (28.6 mU/ml). The dashed lines indicate the zero-current level. […] FIG. 1C: Cytochrome c release was assayed, using a monoclonal anti-cytochrome c antibody, in the absence or the presence of HK-I (1 U/ml), chymotrypsin-treated HK-I (1 U/ml) or CsA (10 micro M).
(§4) RuR, known to interact with several Ca^2+ binding proteins and to inhibit Ca^2+ transport in mitochondria, inhibited channel activity of native but not of E72Q-mutated VDAC1 (FIG. 5E). Purified recombinant native and E72Q-mVDAC1 variant were reconstituted into a planar lipid bilayer (PLB) and the currents produced in response to voltages stepped from a holding potential of 0 mV to −20 mV were recorded. […] The level of inhibition calculated from […] different experiments was 89.2±2.8% (mean±SD, n=9). In contrast, the channel activity of E72Q-mVDAC1 was not inhibited by RuR in all ten experiments.

The target of another assay is T4, E72Q-mVDAC1 (Mus musculus, UniProt Q60932, E72Q).
T4 construct: made in house; host or cells: yeast (purified from mitochondria of yeast expressing mutated mVDAC1)
The description is as above. Type of assay: biochemical. The following applies: HK-I 28.6 mU/ml, 5 min; voltage step 0 to −20 mV; 0.5 M NaCl. The method, then:
as §1, §2, §3, §4

In a further assay the test system is U937 cells. Briefly: HK-I over-expression protection against apoptotic cell death in double-transfected cells. Type of assay: cell-based, human. The settings on record: staurosporine (STS). The method, then:
U937 cells were transfected with pcDNA3.1-HisA or pcDNA3.1-HisA-HK-I (neomycin resistance; provided by Dr. J. E. Wilson, University of Michigan) by electroporation, and grown in complete RPMI 1640 with neomycin ([…]). After 12 days, the selected cells were transfected with pEGFP, pEGFP-mVDAC1 or pEGFP-E72Q-mVDAC1 and were grown in the presence of neomycin ([…]). The viability of double-transfected cells was analyzed during 48 to 76 hr.
The effect of HK-I over-expression on apoptotic cell death of the GFP-tagged version of native and E72Q-mVDAC1 over-expressing cells was examined.
Since VDAC1 overexpression induces cell death, U937 cells (FIG. 4A, 4B) or T-Rex™ 293 human embryonic kidney cells (FIG. 4B) were first transformed to stably over-express HK-I and then transfected with native, E65Q, E72Q, K73L, D77N, N75A, or G67A mutated mVDAC1-GFP. […] This β-loop includes amino acid residues T64 to about N78.

Assay [2] deals with permeability transition pore (PTP). In words: PTP opening monitored by Ca2+ accumulation and mitochondrial swelling. The format is biochemical, rat. The following applies: Ca2+ accumulation and swelling of energized mitochondria. As to the method: Ca^2+ uptake by freshly prepared rat liver mitochondria (0.5 mg/ml) was assayed for 1 to 20 minutes at 30° C. in the presence of 225 mM mannitol, 75 mM sucrose, 120 μM CaCl2 (containing 3×10^4 cpm/nmol [^45Ca^2+]), 5 mM HEPES/KOH, 5 mM succinate and 0.1 mM Pi, pH 7.0. Uptake of ^45Ca^2+ was terminated by rapid Millipore filtration followed by a wash with 5 ml of 150 mM KCl.
Ca^2+-induced mitochondria large amplitude swelling was assayed in freshly-prepared mitochondria under the same conditions as for Ca^2+ accumulation, except that the temperature was 24° C. Cyclosporine A (CsA)-sensitive mitochondrial swelling was initiated upon addition of Ca^2+ (0.2 mM) to the sample. Absorbance changes at 520 nm were monitored every 15-20 sec with an Ultraspec 2100 spectrophotometer.
The failure of non-binding species of HK, such as yeast HK, or trypsin- or chymotrypsin-treated HK-I (FIG. 2D) to prevent PTP opening, confirmed the specificity of the HK-I effect, and of the requirement of the HK-I N-terminal region for its interaction with VDAC.
Mitochondrial swelling was assayed in the absence (control ●) or the presence of HK-I (gray ●) and in presence HK-I pre-incubated with peptide LP1. Mitochondrial swelling was assayed as in FIG. 2 in the absence and the presence of peptide LP1 (0.1 mM or 0.3 mM), brain HK-I (0.25 U/ml) or with HK-I pre-incubated for 10 min with LP1. […]

For another assay, the system named is mitochondria. In words: Release of cytochrome c from mitochondria. Type of assay: biochemical, rat. The following applies: HK-I 1 U/ml; Western blot. The method, then: Mitochondria (0.5 mg/ml) were incubated with or without 1 U/ml of HK-I for 20 min in a solution containing 150 mM KCl, 25 mM NaHCO3, 5 mM succinate, 1 mM MgCl2, 3 mM KH2PO4, 20 mM HEPES, pH 7.4. Swelling was monitored after the addition of 200 μM Ca^2+. Following complete swelling, the samples were centrifuged and mitochondrial pellets (25 μg) or supernatant (40 μl) were subjected to SDS-PAGE and Western blot analyses using monoclonal anti-cytochrome C antibodies.
as §3
The effects of HK-I are similar to those of the well-known inhibitor of PTP, cyclosporine A (CsA) (FIGS. 1C and 2B).
Background: A western blot detects proteins with antibodies after separation by electrophoresis.

Substitutions are numbered along the chain they refer to.

T4 sequence (Q60932 14-296 E72Q limits assumed): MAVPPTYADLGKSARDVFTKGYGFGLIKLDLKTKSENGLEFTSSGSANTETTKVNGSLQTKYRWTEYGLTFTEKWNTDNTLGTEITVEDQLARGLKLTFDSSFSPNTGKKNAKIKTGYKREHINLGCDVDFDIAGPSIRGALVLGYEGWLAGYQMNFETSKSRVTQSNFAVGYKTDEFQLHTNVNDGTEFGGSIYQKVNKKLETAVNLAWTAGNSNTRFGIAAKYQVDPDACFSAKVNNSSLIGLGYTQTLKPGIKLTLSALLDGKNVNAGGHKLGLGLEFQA
T2 sequence (P10415 whole entry, species assumed): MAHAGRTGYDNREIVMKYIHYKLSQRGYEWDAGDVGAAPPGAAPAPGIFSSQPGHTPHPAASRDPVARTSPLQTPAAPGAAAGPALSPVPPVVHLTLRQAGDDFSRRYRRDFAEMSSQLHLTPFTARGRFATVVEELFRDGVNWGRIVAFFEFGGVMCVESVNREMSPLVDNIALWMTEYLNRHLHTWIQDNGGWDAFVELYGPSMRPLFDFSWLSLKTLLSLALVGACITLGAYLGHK
T3 sequence (Q60932 14-296 limits assumed): as the sequence (Q60932 14-296 E72Q limits assumed) above, with Q59E counted along it

Consider “MAVPPTYADLGKSARDVFTKGYGFGL [Peptide N, 26 amino acid peptide derived from the N-terminal cytosolic segment of VDAC1, amino acids 1-26]”, for which the “detachment or prevention of HK-1 binding to the mitochondria” value with mitochondrial bound HK-I was “Detachment or prevention of HK-1 binding to the mitochondria was also demonstrated”. Also, in the assay with Bcl2, the “effect on anti-apoptotic effect of Bcl2 against STS-induced apoptosis” value was “reversed the anti-apoptotic effect of BCl2”.

B1: HK-I: Hexokinase-I, anti-apoptotic mitochondrial protein that binds to VDAC; purified from rat brain or over-expressed recombinant (protein)
chain: T1 sequence (P05708 1-918)
For B1, the “effect of HK-I on VDAC1 channel” value is recorded as “induces its closure” in assay [1] and “able to close native VDAC1 but not mutated E72Q-VDAC1” with E72Q-mVDAC1. Also, the “protection by HK-I over-expression against STS-induced apoptosis” value in the assay with U937 cells is “protects against apoptosis induced by STS”. Moreover, the “prevention of PTP opening” value in assay [2] is given as “inhibited PTP opening”. The “release of cytochrome c from mitochondria” value in the assay with mitochondria is “prevented the release of cytochrome c from mitochondria”.

The values are drawn from US8648045B2, “VDAC1 compositions and methods of use thereof for regulating apoptosis” (Ben Gurion University of the Negev Research and Development …, priority 2005, dated 2014).
